Laboratory results taken from article PMC5942779, “Identification of a peptide inhibitor for the histone methyltransferase WHSC1” (PLoS ONE, 2018).
Square brackets hold non-standard residues; d marks the D form. Nle = CCCC[C@H](N)C(=O)O

Columns and labels:
Experiment in all cases: cell-based or functional assay
PRMT6 = PRMT6 (UniProt Q96LA8 1-375)
EZH1 = EZH1 (UniProt Q92800 1-747)
EZH2 = EZH2 (UniProt Q15910 1-746)
G9a = G9a (UniProt Q96KQ7 1-1210)
SMYD2 = SMYD2 (UniProt Q9NRG4 1-433)
SETDB1 = SETDB1 (UniProt Q15047 1-1291)

Measured: Biochemical IC50 (enzymatic inhibition, panel of HMT enzymes)

Chain of PRMT6 (Q96LA8 whole entry): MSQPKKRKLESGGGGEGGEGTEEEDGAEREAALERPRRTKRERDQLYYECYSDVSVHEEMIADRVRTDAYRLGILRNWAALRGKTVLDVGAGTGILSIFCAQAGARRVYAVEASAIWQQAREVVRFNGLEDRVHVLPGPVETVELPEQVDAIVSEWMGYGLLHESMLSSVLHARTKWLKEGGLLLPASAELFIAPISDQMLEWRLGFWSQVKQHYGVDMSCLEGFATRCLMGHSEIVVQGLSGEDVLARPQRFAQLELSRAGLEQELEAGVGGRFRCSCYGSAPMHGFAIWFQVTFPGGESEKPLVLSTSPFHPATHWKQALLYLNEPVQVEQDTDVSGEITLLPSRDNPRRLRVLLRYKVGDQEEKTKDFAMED
Chain of EZH1 (Q92800 whole entry): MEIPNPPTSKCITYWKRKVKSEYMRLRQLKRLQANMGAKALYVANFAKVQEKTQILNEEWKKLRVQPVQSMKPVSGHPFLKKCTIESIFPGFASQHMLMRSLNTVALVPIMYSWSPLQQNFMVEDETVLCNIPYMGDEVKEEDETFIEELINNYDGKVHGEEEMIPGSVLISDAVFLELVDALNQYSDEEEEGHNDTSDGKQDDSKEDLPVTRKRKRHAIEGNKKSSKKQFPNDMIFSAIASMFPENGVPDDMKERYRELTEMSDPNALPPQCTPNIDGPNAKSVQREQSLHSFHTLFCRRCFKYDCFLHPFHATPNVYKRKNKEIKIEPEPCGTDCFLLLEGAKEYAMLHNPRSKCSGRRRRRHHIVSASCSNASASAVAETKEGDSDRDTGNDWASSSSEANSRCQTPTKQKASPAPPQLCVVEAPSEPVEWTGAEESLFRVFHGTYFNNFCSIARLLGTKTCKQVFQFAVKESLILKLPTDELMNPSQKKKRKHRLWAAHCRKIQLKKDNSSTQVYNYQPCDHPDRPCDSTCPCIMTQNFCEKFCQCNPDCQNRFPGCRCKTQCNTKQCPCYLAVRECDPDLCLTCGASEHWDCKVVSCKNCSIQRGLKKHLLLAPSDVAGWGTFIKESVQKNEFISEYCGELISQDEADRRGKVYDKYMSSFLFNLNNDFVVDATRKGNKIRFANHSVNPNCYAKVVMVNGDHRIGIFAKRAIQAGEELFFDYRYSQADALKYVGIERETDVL
Chain of G9a (Q96KQ7 whole entry): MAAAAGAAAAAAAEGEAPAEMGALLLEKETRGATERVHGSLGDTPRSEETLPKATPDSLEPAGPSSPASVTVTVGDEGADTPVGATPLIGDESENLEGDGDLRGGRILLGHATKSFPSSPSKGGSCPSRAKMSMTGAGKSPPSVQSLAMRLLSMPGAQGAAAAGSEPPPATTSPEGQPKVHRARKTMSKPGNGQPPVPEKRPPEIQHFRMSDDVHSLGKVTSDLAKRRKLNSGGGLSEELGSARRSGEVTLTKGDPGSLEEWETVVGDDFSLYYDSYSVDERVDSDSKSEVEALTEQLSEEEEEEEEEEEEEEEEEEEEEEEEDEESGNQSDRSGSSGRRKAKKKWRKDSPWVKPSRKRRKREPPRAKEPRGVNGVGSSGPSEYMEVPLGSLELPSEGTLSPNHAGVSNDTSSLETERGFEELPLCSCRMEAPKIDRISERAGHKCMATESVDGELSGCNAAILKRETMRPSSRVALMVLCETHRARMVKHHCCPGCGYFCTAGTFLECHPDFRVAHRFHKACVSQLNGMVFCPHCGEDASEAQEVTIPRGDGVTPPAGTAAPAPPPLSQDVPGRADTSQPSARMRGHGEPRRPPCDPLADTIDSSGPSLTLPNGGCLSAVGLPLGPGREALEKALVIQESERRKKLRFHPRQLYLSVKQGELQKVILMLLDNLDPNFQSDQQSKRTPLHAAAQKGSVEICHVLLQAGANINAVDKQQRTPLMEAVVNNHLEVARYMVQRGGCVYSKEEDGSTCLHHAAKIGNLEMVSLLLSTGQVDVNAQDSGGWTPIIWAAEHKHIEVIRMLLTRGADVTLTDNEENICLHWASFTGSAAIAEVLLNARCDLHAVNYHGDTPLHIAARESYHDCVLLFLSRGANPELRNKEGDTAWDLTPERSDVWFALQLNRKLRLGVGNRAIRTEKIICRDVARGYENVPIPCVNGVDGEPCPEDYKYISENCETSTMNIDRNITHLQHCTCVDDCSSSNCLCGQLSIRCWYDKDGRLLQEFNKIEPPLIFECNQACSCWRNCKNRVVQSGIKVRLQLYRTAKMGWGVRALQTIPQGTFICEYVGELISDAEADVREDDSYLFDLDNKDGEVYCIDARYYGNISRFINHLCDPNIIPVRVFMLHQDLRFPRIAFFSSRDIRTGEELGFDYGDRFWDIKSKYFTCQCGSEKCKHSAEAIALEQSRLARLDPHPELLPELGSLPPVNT
Chain of EZH2 (Q15910 whole entry): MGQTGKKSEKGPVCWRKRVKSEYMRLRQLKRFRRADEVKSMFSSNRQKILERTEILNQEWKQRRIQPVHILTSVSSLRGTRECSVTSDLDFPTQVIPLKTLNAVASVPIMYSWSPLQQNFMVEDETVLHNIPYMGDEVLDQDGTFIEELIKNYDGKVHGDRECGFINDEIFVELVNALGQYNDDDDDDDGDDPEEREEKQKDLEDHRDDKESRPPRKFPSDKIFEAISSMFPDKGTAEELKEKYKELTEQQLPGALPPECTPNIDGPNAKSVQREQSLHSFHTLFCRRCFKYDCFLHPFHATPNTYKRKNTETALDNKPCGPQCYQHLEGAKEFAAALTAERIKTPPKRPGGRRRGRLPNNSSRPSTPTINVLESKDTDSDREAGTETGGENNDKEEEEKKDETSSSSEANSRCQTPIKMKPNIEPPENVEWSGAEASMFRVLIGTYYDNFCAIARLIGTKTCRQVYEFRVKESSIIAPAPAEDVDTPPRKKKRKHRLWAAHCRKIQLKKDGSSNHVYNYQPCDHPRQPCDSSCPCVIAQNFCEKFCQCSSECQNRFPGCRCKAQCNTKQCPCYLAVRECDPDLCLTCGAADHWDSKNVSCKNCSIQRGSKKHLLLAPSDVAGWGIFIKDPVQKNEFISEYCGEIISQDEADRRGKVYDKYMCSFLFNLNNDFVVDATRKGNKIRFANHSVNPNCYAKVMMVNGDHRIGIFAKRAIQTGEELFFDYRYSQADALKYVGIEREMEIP
Chain of SMYD2 (Q9NRG4 whole entry): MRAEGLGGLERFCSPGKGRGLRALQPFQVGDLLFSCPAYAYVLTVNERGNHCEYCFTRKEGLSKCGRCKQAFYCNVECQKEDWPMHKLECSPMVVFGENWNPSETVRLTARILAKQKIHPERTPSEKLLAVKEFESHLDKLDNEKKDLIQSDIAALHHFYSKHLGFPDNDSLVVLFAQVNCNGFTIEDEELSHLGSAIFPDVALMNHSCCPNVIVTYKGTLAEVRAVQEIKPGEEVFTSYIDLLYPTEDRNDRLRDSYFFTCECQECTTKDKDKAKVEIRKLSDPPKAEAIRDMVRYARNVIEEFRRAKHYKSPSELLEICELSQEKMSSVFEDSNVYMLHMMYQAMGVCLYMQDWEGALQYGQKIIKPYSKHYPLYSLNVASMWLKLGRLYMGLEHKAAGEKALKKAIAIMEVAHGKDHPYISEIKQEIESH

Ac-GV[Nle]RI-NH2 [PTD2]
> 200 µM: all assays above
